From patent US20190111150A1 (AbbVie / Abbott, published 2019) come the findings set out here.

Experiment [1] has as its target T1, recombinant human CD71 extracellular domain (human, UniProt P02786 89-760).
T1 construct: extracellular domain; Treated as one molecule; also called rhCD71; human CD71 ECD
The experiment can be described thus: ELISA on coated recombinant human CD71 ECD (rhCD71); Kapp.
Experimental: (§1) In the ELISA examples, recombinant cynomolgus or human CD71 ECD proteins were coated on ELISA plates, and then incubated with one of a range of concentrations of the test articles of the present disclosure, followed by measurement of the amount of bound test article with a secondary antibody.

Experiment [2] has as its target T2, recombinant cynomolgus monkey CD71 extracellular domain (cynomolgus monkey, UniProt H9EXL1 89-760 (rhesus entry)).
T2 construct: extracellular domain; also called rcCD71; monkey recombinant CD71
Kind of experiment: ELISA on coated recombinant cynomolgus CD71 ECD (rcCD71); Kapp.
Experimental: as §1

Experiment [3] deals with T3, cynomolgus monkey CD71 on cells (cynomolgus monkey, UniProt H9EXL1 1-760 (rhesus entry)).
T3 construct: whole, on cells; also called cell-surface cynomolgus CD71; CHO w/ Cynomolgus CD71
T3 sequence (chain, as listed by the source): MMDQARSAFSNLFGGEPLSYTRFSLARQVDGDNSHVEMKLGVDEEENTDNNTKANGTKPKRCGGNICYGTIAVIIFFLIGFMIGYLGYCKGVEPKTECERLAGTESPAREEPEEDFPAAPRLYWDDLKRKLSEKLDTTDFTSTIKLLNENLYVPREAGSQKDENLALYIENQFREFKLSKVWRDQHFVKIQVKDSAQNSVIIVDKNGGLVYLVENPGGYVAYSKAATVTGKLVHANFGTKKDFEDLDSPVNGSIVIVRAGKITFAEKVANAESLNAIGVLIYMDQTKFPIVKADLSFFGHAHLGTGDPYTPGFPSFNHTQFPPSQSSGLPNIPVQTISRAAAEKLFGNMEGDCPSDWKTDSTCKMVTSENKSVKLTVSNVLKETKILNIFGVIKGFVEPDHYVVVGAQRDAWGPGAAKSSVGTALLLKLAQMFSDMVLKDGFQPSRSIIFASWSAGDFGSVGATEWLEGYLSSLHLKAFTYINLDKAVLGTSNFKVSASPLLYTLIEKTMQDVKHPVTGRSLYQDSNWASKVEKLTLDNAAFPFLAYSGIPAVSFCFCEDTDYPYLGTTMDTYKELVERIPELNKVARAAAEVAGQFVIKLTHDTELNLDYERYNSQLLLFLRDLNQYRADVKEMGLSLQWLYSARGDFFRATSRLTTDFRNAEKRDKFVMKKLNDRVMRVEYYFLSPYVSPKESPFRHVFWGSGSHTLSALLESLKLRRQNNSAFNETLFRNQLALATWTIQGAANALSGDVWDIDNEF
The experiment can be described thus: flow cytometry on CHO-K1 cells expressing cynomolgus CD71; Kapp.
Text: (§2) The flow cytometry results reflect the average measured Kapp from four human cell lines (HCC1806 human breast cancer, HT-29 human colorectal cancer, NCI-H292 human lung cancer, and NCI-H520 human lung cancer) and one CHO-K1 cell line expressing cynomolgus monkey CD71.

Experiment [4] has as its target T1, recombinant human CD71 extracellular …. The experiment can be described thus: ELISA, recombinant human CD71 (R&D Systems) coated at 1 ug/mL; Kd(app).
Experimental: (§3) The amount of bound antibody in each sample was detected by incubation and detection by goat anti-human antibody conjugated to horseradish peroxidase and Ultra TMB (Thermo Fisher Scientific) detection.
For experiment [5], the target named is T2, recombinant cynomolgus monkey CD71 …. Kind of experiment: ELISA, recombinant cynomolgus CD71 (R&D Systems) coated at 1 ug/mL; Kd(app).
Experimental: as §3
Experiment [6] concerns the target T4, human CD71 on the surface of human cell lines (human, UniProt P02786 1-760).
T4 construct: whole, on cells; also called cell-surface human CD71; CD71 on BxPC3, NCI-H292, HCC1806, HT-29, NCI-H520 cells
Kind of experiment: flow cytometry, average of 4 human cell lines (HCC1806, HT-29, NCI-H292, NCI-H520); Kapp.
Text: as §2

Experiment [7] has as its target T2, recombinant cynomolgus monkey CD71 …. Kind of experiment: ELISA on plate-coated recombinant cynomolgus CD71 (1 µg/mL), goat anti-human HRP, TMB, Abs 450.
Experimental: as §3
In another experiment the target is T5, recombinant mouse CD71 (mouse, UniProt Q62351 89-763).
T5 construct: extracellular domain; also called mouse CD71 ECD
The experiment can be described thus: ELISA on recombinant mouse CD71 (ECD).

The target of experiment [8] is T4, human CD71 on the surface of human cell …. Kind of experiment: FACS on NCI H292 cells; apparent Kd (Kapp).
Experiment [9] deals with T6, rat CD71 on rat H-4-II-E hepatoma cells (rat, UniProt Q99376 1-761).
T6 construct: whole, on cells; also called rat CD71-expressing cell line
T6 sequence (Q99376 whole entry): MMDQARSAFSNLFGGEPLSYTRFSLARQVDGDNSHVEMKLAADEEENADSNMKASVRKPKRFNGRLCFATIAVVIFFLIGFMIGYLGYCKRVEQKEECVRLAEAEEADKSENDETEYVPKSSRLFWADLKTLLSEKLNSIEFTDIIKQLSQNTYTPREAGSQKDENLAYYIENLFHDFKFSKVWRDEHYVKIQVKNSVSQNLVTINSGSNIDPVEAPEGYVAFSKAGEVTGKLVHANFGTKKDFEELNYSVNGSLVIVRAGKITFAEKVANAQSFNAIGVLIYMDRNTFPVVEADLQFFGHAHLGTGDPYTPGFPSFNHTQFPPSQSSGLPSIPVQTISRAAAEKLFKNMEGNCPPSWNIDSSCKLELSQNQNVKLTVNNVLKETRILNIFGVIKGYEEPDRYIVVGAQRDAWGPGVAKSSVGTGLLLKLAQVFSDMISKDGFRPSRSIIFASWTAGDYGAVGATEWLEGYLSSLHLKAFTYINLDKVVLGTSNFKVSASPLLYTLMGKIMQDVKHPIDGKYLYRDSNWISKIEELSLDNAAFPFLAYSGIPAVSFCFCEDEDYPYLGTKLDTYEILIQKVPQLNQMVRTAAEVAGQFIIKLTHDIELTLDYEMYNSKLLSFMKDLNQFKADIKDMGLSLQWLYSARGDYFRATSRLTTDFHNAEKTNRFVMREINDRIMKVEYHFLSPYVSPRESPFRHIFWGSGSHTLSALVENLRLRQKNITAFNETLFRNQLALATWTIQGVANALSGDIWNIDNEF
Kind of experiment: flow cytometry on rat H-4-II-E hepatoma cells.

Experiment [10] addresses T1, recombinant human CD71 extracellular …. The experiment can be described thus: ELISA on recombinant CD71 ECD; apparent Kd (Kapp).
Experiment [11] deals with T2, recombinant cynomolgus monkey CD71 …. The experiment can be described thus: ELISA on recombinant CD71 ECD; apparent Kd (Kapp).
In experiment [12] the target is T4, human CD71 on the surface of human cell …. Kind of experiment: flow cytometry on human BxPC3 cells; apparent Kd (Kapp).
Experiment [13] deals with T3, cynomolgus monkey CD71 on cells. Kind of experiment: flow cytometry on cynomolgus monkey primary kidney epithelial cells; apparent Kd (Kapp).
In experiment [14] the target is T4, human CD71 on the surface of human cell …. Kind of experiment: FACS on cells.
Experiment [15] deals with T2, recombinant cynomolgus monkey CD71 …. Kind of experiment: ratio of Kapp; ELISA on rcCD71.
Experimental: as §1
Experiment [16] deals with T1, recombinant human CD71 extracellular …. The experiment can be described thus: ratio of Kapp; ELISA on rhCD71.
Experimental: as §1
The target in experiment [17] is T3, cynomolgus monkey CD71 on cells. Kind of experiment: ratio of Kapp; flow cytometry on CHO-K1 cyno CD71.
Text: as §2
For experiment [18], the target named is T7, recombinant human FcγRIIIa F158 (human, UniProt P08637 17-208).
T7 construct: also called huFcγRIIIa F158
T7 sequence (P08637 17-208 limits assumed): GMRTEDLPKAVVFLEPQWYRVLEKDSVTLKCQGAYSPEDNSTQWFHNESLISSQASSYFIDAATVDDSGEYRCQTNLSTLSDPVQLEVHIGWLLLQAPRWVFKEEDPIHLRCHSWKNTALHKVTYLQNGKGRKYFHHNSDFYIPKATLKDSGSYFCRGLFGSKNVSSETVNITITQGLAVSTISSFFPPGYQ
The experiment can be described thus: SPR (Biacore), FcγR captured via 6xHis tag, 1:1 binding fit.
Experimental: (§4) Mouse anti-6×His antibodies were directly immobilized on a CMS chip by amine coupling according to manufacturer's protocol to the density of 10000 RU. Human FcγRs were then captured on Flow Cells 2, 3 and 4 to achieve capture level of the FcγRs of 250-500 RU. Flow Cell 1 was used as a reference surface. HBS-EP+ buffer (GE, Healthcare) was used as the running buffer. […] The chip surfaces were regenerated with an injection of 100 mM HCl at a flow rate of 100 μL/minute for two seconds over all four flow cells. Three experiments with the use of three different CMS chips were run for each sample (each in duplicate) to accommodate all types of experimental error (instrument, surface and operator). The results of these three experiments were averaged.
(§5) All recombinant human FcγRIIIa V158 data and FcγRIIIa F158 data were fitted to 1:1 binding fit model with Rmax fixed local to account for variability in capture levels. Recombinant human FcγRIIb, FcγRIIa H131, and FcRn binding data were fitted to a steady state affinity model. Biacore T200 Evaluation Software Version 2.0 was used to fit all the data.

Experiment [19] has as its target T8, recombinant human FcγRIIIa V158 (human, UniProt P08637 17-208).
T8 construct: also called huFcγRIIIa V158
The experiment is described as above.
Experimental: as §4, §5

The target in experiment [20] is T4, human CD71 on the surface of human cell …. The experiment can be described thus: ratio of Kapp; flow cytometry, average of 4 human cell lines.
Text: as §2
The target of experiment [21] is T9, recombinant human FcγRIIa H131 (human, UniProt P12318 36-218, limits assumed).
T9 construct: also called huFcγRIIa H131; FcγIIa H131
T9 sequence (looked up): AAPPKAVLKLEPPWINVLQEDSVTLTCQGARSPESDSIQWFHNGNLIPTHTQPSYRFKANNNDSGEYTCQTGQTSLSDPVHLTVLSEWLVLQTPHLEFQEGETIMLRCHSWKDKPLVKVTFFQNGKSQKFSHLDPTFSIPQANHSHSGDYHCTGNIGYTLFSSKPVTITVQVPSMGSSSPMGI
The experiment can be described thus: SPR (Biacore), FcγR captured via 6xHis tag, steady state affinity model.
Experimental: as §4, §5

Another experiment has as its target T10, human FcRn (human, UniProt P55899 24-297; P61769 21-119).
T10 construct: also called Hu FcRn; neonatal Fc receptor
Kind of experiment: SPR (Biacore), antibody immobilized, FcRn injected, pH 6.0, steady state affinity model; FcRn at pH 6.0.

Experiment [22] deals with T3, cynomolgus monkey CD71 on cells. The experiment can be described thus: flow cytometry on CHO cells expressing cynomolgus CD71, Alexa Fluor 647 goat anti-human IgG (MFI).
The target of another experiment is human FcγRI (human, UniProt P12314 16-288, limits assumed). The experiment can be described thus: FcγRI competition binding ELISA (results not shown).
Sequence of human FcγRI (P12314 16-288 limits assumed): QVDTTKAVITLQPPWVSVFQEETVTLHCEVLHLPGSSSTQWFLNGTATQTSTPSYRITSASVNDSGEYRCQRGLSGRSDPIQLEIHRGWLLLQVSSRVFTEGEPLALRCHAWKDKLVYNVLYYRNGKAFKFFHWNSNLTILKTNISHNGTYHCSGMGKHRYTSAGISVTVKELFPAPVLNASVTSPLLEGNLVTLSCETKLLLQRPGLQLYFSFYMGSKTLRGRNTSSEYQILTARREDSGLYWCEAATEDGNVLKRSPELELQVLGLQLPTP

Residue numbers refer to the chain shown, from its start.

T1 sequence (P02786 89-760): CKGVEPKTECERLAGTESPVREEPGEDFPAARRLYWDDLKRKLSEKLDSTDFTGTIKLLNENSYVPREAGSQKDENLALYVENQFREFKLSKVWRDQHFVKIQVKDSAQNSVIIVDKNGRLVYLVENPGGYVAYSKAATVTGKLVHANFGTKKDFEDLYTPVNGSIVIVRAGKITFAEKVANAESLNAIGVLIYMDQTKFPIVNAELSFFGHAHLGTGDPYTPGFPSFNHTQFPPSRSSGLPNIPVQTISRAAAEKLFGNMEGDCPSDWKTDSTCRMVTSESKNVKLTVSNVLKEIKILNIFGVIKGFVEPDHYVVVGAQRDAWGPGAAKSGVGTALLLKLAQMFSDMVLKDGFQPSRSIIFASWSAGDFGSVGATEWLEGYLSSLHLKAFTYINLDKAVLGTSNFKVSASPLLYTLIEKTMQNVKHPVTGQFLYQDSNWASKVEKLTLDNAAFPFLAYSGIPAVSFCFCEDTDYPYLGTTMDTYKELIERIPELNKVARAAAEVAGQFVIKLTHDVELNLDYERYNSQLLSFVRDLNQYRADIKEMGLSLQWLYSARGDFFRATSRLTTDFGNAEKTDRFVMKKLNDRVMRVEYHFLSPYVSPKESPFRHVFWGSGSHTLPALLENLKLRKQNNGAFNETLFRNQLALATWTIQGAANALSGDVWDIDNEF
T4 sequence (P02786 whole entry): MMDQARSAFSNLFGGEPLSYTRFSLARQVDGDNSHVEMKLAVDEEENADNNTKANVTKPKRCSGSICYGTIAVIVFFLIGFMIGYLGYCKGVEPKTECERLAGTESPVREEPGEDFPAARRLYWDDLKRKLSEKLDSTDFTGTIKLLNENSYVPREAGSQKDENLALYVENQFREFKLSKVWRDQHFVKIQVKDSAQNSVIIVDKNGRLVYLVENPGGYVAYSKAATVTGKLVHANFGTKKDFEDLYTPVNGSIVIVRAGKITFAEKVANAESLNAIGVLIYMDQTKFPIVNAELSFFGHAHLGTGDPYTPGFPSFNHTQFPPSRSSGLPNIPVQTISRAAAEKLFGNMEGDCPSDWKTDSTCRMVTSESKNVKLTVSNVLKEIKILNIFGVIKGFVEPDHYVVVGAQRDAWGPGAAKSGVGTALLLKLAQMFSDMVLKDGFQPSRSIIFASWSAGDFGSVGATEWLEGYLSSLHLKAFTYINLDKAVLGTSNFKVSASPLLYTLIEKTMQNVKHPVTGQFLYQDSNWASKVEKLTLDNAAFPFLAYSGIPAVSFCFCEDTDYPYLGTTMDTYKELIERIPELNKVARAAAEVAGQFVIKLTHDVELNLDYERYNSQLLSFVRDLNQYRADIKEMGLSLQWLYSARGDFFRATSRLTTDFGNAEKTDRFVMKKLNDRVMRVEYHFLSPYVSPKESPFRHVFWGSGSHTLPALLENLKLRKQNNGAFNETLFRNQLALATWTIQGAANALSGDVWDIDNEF
T2 sequence (chain, as listed by the source): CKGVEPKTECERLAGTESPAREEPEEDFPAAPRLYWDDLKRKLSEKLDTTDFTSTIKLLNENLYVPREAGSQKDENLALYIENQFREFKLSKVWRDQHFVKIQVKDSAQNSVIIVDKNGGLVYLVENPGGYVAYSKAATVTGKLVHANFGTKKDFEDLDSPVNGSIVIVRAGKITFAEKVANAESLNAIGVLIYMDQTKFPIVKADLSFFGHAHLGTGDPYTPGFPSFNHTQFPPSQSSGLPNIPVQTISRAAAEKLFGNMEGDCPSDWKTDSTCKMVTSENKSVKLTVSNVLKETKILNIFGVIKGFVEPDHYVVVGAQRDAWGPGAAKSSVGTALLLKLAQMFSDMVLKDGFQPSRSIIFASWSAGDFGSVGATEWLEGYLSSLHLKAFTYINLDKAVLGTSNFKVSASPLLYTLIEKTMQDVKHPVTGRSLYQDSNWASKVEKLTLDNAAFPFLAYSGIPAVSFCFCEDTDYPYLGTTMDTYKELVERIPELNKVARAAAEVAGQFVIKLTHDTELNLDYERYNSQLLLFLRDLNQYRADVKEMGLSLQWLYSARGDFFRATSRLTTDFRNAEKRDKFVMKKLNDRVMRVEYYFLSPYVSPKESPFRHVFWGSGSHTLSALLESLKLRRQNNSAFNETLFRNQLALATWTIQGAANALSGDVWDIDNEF
T10 sequence (P55899 24-297 limits assumed, form in doubt, chain 1 of 2): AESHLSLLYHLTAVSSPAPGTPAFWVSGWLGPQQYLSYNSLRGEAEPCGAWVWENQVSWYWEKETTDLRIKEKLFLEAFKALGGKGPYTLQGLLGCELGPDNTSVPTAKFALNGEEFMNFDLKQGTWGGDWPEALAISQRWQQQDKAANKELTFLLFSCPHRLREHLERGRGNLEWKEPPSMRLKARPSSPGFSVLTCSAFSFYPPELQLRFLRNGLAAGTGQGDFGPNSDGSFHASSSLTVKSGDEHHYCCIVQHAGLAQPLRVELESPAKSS
T10 sequence (P61769 21-119 limits assumed, form in doubt, chain 2 of 2): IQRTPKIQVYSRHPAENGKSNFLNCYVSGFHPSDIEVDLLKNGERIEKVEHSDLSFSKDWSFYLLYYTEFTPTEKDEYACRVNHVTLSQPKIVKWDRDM
T8 sequence (P08637 17-208 F176V): as the sequence (P08637 17-208 limits assumed) above, with F160V counted along it
Experimental for human FcRn: The surfaces were regenerated with an injection of 100 mM HCl for two seconds followed by HBS-EP+, pH 7.4. Samples were prepared and run in two running buffer systems, MES-EP+ pH 6.0 and HBS-EP pH 7.4. Three experiments with the use of three different CMS chips were run for each sample (each in duplicate) to account for instrument, surface and operator error. The results of these three experiments were averaged.
as §5

B1: anti-CD71-TF02.13-2011, protease-activated (cleaved) (antibody, not shown: small tags and cut ends)
heavy: not shown
light: DIQMTQSPSSLSASVGDRVTITCSASSSVYYMYWFQQKPGKAPKLWIYSTSNLASGVPSRFSGSGSGTDYTLTISSMQPEDFATYYCQQRRNYPYTFGQGTKLEIKRTVAAPSVFIFPPSDEQLKSGTASVVCLLNNFYPREAKVQWKVDNALQSGNSQESVTEQDSKDSTYSLSSTLTLSKADYEKHKVYACEVTHQGLSSPVTKSFNRGEC
notes: the mask is released
Turning to B1, the Kd in experiment [1] is 0.06 nM; in experiment [2], 0.04 nM; in experiment [3] it was 0.5 nM; in [4] it was 0.04 nM; in [5] it was 0.06 nM; in [6] it was 2 nM. Moreover, the “EC50 (read off the curve)” value in experiment [7] was about 0.06 nM.

B2: anti-CD71-TF02.13-2011-vcMMAE E2, protease-activated (cleaved) (antibody, not shown: small tags and cut ends)
heavy: not shown
light: B1 light
modifications: vc-MMAE on interchain cysteine thiols; drug load 2 per antibody; chain and positions not stated
notes: m14 after protease treatment; the mask is released
In the case of B2, the Kd in [1] was 0.05 nM; in experiment [2] it was 0.04 nM; in experiment [3], 0.7 nM; in experiment [4], 0.05 nM; in experiment [5] it was 0.07 nM; in experiment [6] it was 2 nM. In addition, the “EC50 (read off the curve)” value in experiment [7] was about 0.07 nM.

B3: anti-CD71 Ab21.12 LcB:HcC antibody (antibody, V domains shown)
VH: QVQLVQSGAEVKKPGASVKMSCKASGYTFTSYWMHWVRQAPGQGLEWIGAIYPGNSETGYAQKFQGRATLTADTSTSTAYMELSSLRSEDTAVYYCTRENWDPGFAFWGQGTLITVSS
VL: DIQMTQSPSSLSASVGDRVTITCSASSSVYYMYWFQQKPGKAPKLWIYSTSNLASGVPSRFSGSGSGTDYTLTISSMQPEDFATYYCQQRRNYPYTFGQGTKLEIK
notes: Humanized; also called huCD71 21.12 Ab; anti-CD71 21.12 antibody
Regarding B3, the binding result (with recombinant mouse CD71; in experiment [9]) was “no binding” in each case. In addition, the Kd worked out at 2.29 nM in [8]; 0.3 nM in experiment [10]; 0.4 nM in [11]; 3 nM in experiment [12]; 0.03 nM in experiment [1]; 0.03 nM in experiment [2]. Moreover, the values for the Kd in [3], in [13] and in experiment [6] were 0.3 nM, 3 nM and 0.8 nM, respectively.

B4: conjugated antibody anti-CD71 Ab21.12-vcMMAE E2 (antibody, V domains shown)
VH: B3 VH
VL: B3 VL
modifications: vc-MMAE conjugated; DAR about 2 (E2); positions not given
notes: Unmasked antibody drug conjugate of Ab21.12
B4: the Kd in experiment [1] is 0.04 nM; in [2], 0.03 nM.

B5: humanized anti-CD71 antibody Ab21.10 LcB:HcA (antibody, V domains shown)
VH: B3 VH with M20V, I48M, A68V, L70M, A72R, A79V, T97A, I114V
VL: B3 VL
notes: Detected with anti-human IgG
B5: the binding result in experiment [14] is “binds”.

B6: anti-CD71 activatable antibody anti-CD71-TF02.13-2011, intact (uncleaved) (antibody, human IgG1, kappa)
heavy: not shown
light: NLCTEHSAALDCRSYGGGSSGGSISSGLLSGRSDNPGGGSDIQMTQSPSSLSASVGDRVTITCSASSSVYYMYWFQQKPGKAPKLWIYSTSNLASGVPSRFSGSGSGTDYTLTISSMQPEDFATYYCQQRRNYPYTFGQGTKLEIKRTVAAPSVFIFPPSDEQLKSGTASVVCLLNNFYPREAKVQWKVDNALQSGNSQESVTEQDSKDSTYSLSSTLTLSKADYEKHKVYACEVTHQGLSSPVTKSFNRGEC
notes: copies: 2 + 2
Consider B6, for which the “Ratio anti-CD71-TF02.13-2011/Ab21.12” value is 37 in [15], 65 in [16], 93 in experiment [17] and 127 in experiment [20]. Also, the “Ratio anti-CD71-TF02.13-2011/anti-CD71-TF02.13-2011, matriptase activated” value came to 28 in experiment [15], 32 in experiment [16], 56 in [17] and 55 in [20]. Further, the Kd amounted to 1.94 nM in experiment [1]; 1800 nM in experiment [18]; 180 nM in experiment [19]; 1.11 nM in experiment [2]; 28 nM in experiment [3]; 0.42 nM in [4]. Further, the Kd amounted to 4700 nM in experiment [21], 1.24 nM in experiment [5], 106 nM in [6] and 4700 nM in the experiment with human FcRn. The “EC50 (read off the curve)” value in [7] is about 1 nM; in [22] it was about 30 nM.

B7: anti-CD71 conjugated activatable antibody anti-CD71-TF02.13-2011-vcMMAE E2, intact (uncleaved) (antibody, human IgG1, kappa)
heavy: not shown
light: B6 light
modifications: vc-MMAE (maleimide caproyl-valine-citrulline linker with monomethyl auristatin E) on interchain cysteine thiols after partial TCEP reduction; drug load 2 per activatable antibody; chain and positions not stated
notes: E2 = enriched for drug load 2 (DAR about 2); also called AADC; copies: 2 + 2
Take B7: the binding result with human FcγRI is reported as “binds”. Moreover, the Kd was found to be 2.58 nM in experiment [1]; 2100 nM in experiment [18]; 1.02 nM in experiment [2]; 35 nM in experiment [3]; 0.48 nM in [4]; 6200 nM in [21]. In addition, the Kd in experiment [5] is 1.49 nM; in [6], 98.1 nM; with human FcRn, 5300 nM. Also, the entries for the “EC50 (read off the curve)” value in experiment [7] and in experiment [22] were about 1 nM and about 30 nM, respectively.
